From article doi:10.1101/2025.07.02.662713

Target: CFP-MtbDarG MD (mCerulean-fused macrodomain of Mycobacterium tuberculosis DNA ADP-ribosylglycohydrolase DarG) (M. tuberculosis) (UniProt O53605)
Experiment: FRET or BRET

Chain of PARylated YFP-GAP (mCitrine fused to a C-terminal Gαi 10-mer peptide, poly-ADP-ribosylated) (P63096 whole entry, looked up, the tested form may be a part): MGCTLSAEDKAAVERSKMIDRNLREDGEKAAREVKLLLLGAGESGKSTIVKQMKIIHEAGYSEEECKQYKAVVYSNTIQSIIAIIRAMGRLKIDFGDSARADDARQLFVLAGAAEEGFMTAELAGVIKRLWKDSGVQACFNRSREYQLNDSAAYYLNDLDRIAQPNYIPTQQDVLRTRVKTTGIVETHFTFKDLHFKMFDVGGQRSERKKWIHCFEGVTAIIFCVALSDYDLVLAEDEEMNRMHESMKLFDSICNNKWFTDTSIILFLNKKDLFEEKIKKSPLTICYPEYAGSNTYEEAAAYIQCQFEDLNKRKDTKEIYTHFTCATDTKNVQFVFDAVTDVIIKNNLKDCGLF
Chain of CFP-MtbDarG MD (mCerulean-fused macrodomain of Mycobacterium tuberculosis DNA ADP-ribosylglycohydrolase DarG) (M. tuberculosis) (O53605 1-155): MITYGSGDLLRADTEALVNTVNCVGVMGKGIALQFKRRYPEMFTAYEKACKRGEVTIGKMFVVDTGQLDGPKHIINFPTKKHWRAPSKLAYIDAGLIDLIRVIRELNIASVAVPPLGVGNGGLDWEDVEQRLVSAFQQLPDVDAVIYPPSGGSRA

PARylated YFP-GAP (mCitrine fused to a C-terminal Gαi 10-mer peptide, poly-ADP-ribosylated) (from UniProt P63096 345-354)
Kd: 316 nM
